The values that follow come from article PMC12272218.

The target in this assay is T1, Uracil-DNA Glycosylase (UDG) (UniProt P12295).
T1 sequence: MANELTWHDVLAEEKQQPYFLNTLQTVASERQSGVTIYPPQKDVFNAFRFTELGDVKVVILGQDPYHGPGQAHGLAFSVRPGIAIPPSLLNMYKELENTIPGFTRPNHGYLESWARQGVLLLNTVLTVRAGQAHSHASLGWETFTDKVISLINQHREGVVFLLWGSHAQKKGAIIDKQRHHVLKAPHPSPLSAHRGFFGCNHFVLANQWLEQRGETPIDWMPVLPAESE

“uracil glycosylase inhibitor (UGI) (from UniProt P14739 1-84) (natural protein)” showed a half-maximal inhibitory concentration of UGI on UDG activity, read by fluorescence of the dU-containing circular crRNA-assisted CRISPR-Cas12a system of 0.087 U/mL.
